The text below walks through data of paper PMC3173486.

The assay deals with HA of all the influenza A/H3N2 viruses tested with RpSP-D multimers and trimers.

B1: RpSP-D multimers (natural protein)
chain: AEMKTYSQRAVANACALVMCSPMENGLPGRDGRDGREGPRGEKGDPGLPGAVGRAGMPGLAGPVGPKGDNGSTGEPGAKGDIGPCGPPGPPGIPGPAGKEGPSGQQGNIGPPGTPGPKGETGPKGEVGALGMQGSTGARGPAGLKGERGAPGERGAPGSAGAAGPAGATGPQGPSGARGPPGLKGDRGPPGERGAKGESGLPGITALRQQVETLQGQVQRLQKAFSQYKKVELFPNGRGVGEKIFKTGGFEKTFQDAQQVCTQAGGQMASPRSETENEALSQLVTAQNKAAFLSMTDIKTEGNFTYPTGEPLVYANWAPGEPNNNGGSSGAENCVEIFPNGKWNDKACGELRLVICEF
In turn, B1 registered an HI assay: minimal inhibitory concentration of RpSP-D multimers of 8.7 ng/100 µl.

B2: RpSP-D trimers (natural protein)
chain: B1 chain
Regarding B2, the HI assay: minimal inhibitory concentration of RpSP-D trimers was 124 ng/100 µl.
